Results on 26 sequences are retold here after the DeepSol protein solubility set.

A short description of this data set: soluble on expression in E. coli; label from the status in PepcDB or PDB records.
As for “GFPERELPRPGASRPAEKSRPPEAKGAQPADAWKAGRPRSEEDNELNLPNLAAAYSSILRSLGEDPQRQGLLKTPWRAATAMQFFTKGYQETISDVLNDAIFDEDHDEMVIVKDIDMFSMCEHHLVPFVGRVHIGYLPNKQVLGLSKLARIVEIYSRRLQVQERLTKQIAVAITEALQPAGVGVVIEATHMCMVMRGVQKMNSKTVTSTMLGVFREDPKTREEFLTLIRS”, the “soluble on expression in E. coli” value is on record as “soluble”.
With “GGSVKKGRRSRRCGQCPGCQVPEDCGVCTNCLDKPKFGGRNIKKQCCKMRKCQNLQWMPSKAYLQKQAKAVK” the entry was “soluble”; with “GGVIATQMTYKVYMSGTVNGHYFEVEGDGKGRPYEGEQTVKLTVTKGGPLPFAWDILSPQCQYGSIPFTKYPEDIPDYVKQSFPEGFTWERIMNFEDGAVCTVSNDSSIQGNCFTYHVKFSGLNFPPNGPVMQKKTQGWEPSSERLFARGGMLIGNNFMALKLEGGGHYLCEFKTTYKAKKPVKMPGYHYVDRKLDVTNHNKDYTSVEQCEISIARKPVVA”, “soluble”.
For the sequence “GHMEELNIDFDVFKKRIELLYSKYNEFEGSPNSLLFVLGSSNAENPYQKTTILHNWLLSYEFPATLIALVPGKVIIITSSAKAKHLQKAIDLFKDPESKITLELWQRNNKEPELNKKLFDDVIALINSAGKTVGIPEKDSYQGKFMTEWNPVWEAAVKENEFNVIDISLGLSKVWEVKDVNEQAFLSVSSKGSDKFMDLLSNEMVRAVDEELKITNAKLSDKIENKIDDVKFLKQLSPDLSALCPPNYKFNFDLLDWTYSPIIQSGKKFDLRVSARSTNDQLYGNGCILASCGIRYNNYCSNITRTFLIDPSEEMANNYDFLLTLQKEIVTNILKPGRTPKEVYESVIEYIEKTKPELVPNFTKNIGSLIGLEFRDSNFILNVKNDYRKIQRGDCFNISFGFNNLKDSQSANNYALQLADTVQIPLDETEPPRFLTNYTKAKSQISFYFNNEEEDNNKKKSSPATKV”, the “soluble on expression in E. coli” value is recorded as “soluble”.
As to “GHMVTMSTEPVSASDKYQKISQLEHILKRPDTYIGSVETQEQLQWIYDEETDCMIEKNVTIVPGLFKIFDEILVNAADNKVRDPSMKRIDVNIHAEEHTIEVKNDGKGIPIEIHNKENIYIPEMIFGHLLTSSNYDDDEKKVTGGRNGYGAKLCNIFSTEFILETADLNVGQKYVQKWENNMSICHPPKITSYKKGPSYTKVTFKPDLTRFGMKELDNDILGVMRRRVYDINGSVRDINVYLNGKSLKIRNFKNYVELYLKSLEKKRQLDNGEDGAAKSDIPTILYERINNRWEVAFAVSDISFQQISFVNSIATTMGGTHVNYITDQIVKKISEILKKKKKKSVKSFQIKNNMFIFINCLIENPAFTSQTKEQLTTRVKDFGSRCEIPLEYINKIMKTDLATRMFEIADANEENALK”, the “soluble on expression in E. coli” value is “soluble”.
Take “GIDPFTMAKKDGAIEVEGRVVEPLPNAMFRIELENGHKVLAHISGKMRQHYIRILPEDRVVVELSPYDLSRGRIVYRYK”: the “soluble on expression in E. coli” value was “soluble”.
For the sequence “GIVMTQTPASQSASLGESVTITCLASQTIGTWLAWYQQKPGKSPQLLIYAATSLADGVPSRFSGSGSGTKFSFKISSLQAEDFVSYYCQQLSSTPYTFGGGTKLEIKRADAAPTVSIFPPSSEQLTSGGASVVCFLNNFYPKDINVKWKIDGKERQNGVLNSWTDQDSKDSTYSMSSTLTLTKDEYERHNSYTCEATHKTSTSPIVKSFNRNE”, the “soluble on expression in E. coli” value was “soluble”.
Regarding “GKKAVINDSNTPLHLLQPAYQGTYGDLTPEQVKKDIDRVFAYIDKETPARVVDKNTGKVITDYTAMGDEAQLERGAFRLASYEWGVTYSALIAAAETTGDKRYTDYVQNRFRFLAEVAPHFKRVYEEKGKTDSQLLQILTPHALDDAGAVCTAMIKLRLKDESLPVDGLIQNYFDFIINKEYRLADGTFARNRPQRNTLWLDDMFMGIPAVAQMSRYDKEAKNKYLAEAVKQFLQFADRMFIPEKGLYRHGWVESSTDHPAFCWARANGWALLTACELLDVLPEDYPQRPKVMDYFRAHVRGVTALQSGEGFWHQLLDCNDSYLETSATAIYVYCLAHAINKGWIDAIAYGPVAQLGWHAVAGKINEEGQVEGTCVGTGMAFDPAFYYYRPVNVYAAHGYGPVLWAGAEMIRLLNTQHPQMNDSAVQYYQEKQKTTAPIFAVDSE”, the “soluble on expression in E. coli” value is “soluble”.
For the sequence “GKKCFLTVRGNFSWNEDKIIENDDPRVQYPWMEKRGTNVNGRWGWIAEGLFTSEEEIMDHAKQFGEGHPGQISKVGDIKYKDLNGDGVIDDYDKCLIGQGDVPKIYYGFGADLQLGDFSVGALFAGNAKADRCLGGNAMYPFNDGSGITNLFANITDRWSADNPTNQDVFYPRLHHGNNANQNNMKTSTWWQKDVSFLRLKQLTIAYQLPKKLINQTFLKSARIYVMGTNLLTFSKFKLWDPELNTNNGTAYPNVRTYSVGVNVSF”, the “soluble on expression in E. coli” value is “not soluble”.
Turning to “GKLDATLRAIVHTAAELVDARYGALGVRGYDHRLVEFVYEGIDEETRHLIGSLPEGRGVLGALIEEPKPIRLDDISRHPASVGFPLHHPPMRTFLGVPVRIRDEVFGNLYLTEKADGQPFSDDDEVLVQALAAAAGIAVDNARLFEESR”, the “soluble on expression in E. coli” value is given as “soluble”.
As to “GKLDEFEAWMRTITKLDIVSLMDFNWGKGGLIKGEKVMNRLGDILGDLHIEDLSIPYTAVAADISNEKEVWLQKGSLLQAIRASISLPLYLMPIEFNGKTLIDGGVLNPVPIA”, the “soluble on expression in E. coli” value is recorded as “not soluble”.
“GKLVRRVLSINEVLGYNPDKGGISFIEAFSWDPVTDTHVFSAMGSSYILENKIATRLGIPGKKKKAIYDEIEKRAKILERLSDEGIVNYWEFFNTIAKITKSGMLRIQ”: the “soluble on expression in E. coli” value was “not soluble”.
With “GKSLKVSSPRPGLLERLSATIQRNLPGHSMLDRQLTTDGKKNQESRFSFSMIKDRIVHFAVSTKLGSVRDSASKHGGEVTFKFAQTKGAFLDQIMKHQDTSGGVCESISAHWISAHAKGESVFNQLYVGGQKGQFHIDSLVSIKQLQMDGLDPYAEQSQITESWLRENGIQPRSPLEVSGETGSKGTKDLLNAILDTGDKGSGYKKISFEGQMAGHTVAAYVDDQKGVTFFDPNFGEFSFPDKTSFSNWFSQDFWSKSMYNKEIGLGQNFYVSNFEP” the entry was “not soluble”.
For the sequence “GLCDGHMHIESGMLTPAEFAAAVIPHGTTTMFTDPHEIANVLGLAGVRMMHDEALMQPVNIFTQMPSCAPSAPGLETTGYEITPEDVAEAMTWPGIIGLGEMMNFPGVTNADPKMLAEIAATQRAGKTVGGHYASPDLGPAFAAYVAGGPADDHEGTCEADAIARVRQGMRSMMRLGSAWYDVETQITAVTEKGLDPRNFILCTDDCHSATLVNDGHMNRVVRHAIACGCDPLIALQMATINTATHFGLERELGSTAPGRRADVILTSDLRDLPIELVIARGQVVAENGKIAVDCPHYDWPD”, the “soluble on expression in E. coli” value is reported as “not soluble”.
In the case of “GMARRDISGAVDFAYLEGFAAGDFAVVDEVLALFREQAALWAPMLDPTHPGWKDAVHTVKGAARGVGAFNLGEVCERCEAGQESLEGVRTALDAALLDIAAYAHEQALRSLKG”, the “soluble on expression in E. coli” value was “soluble”.
With “GMASSFLEEVDRLITLSGITFHASGTGTPELIKIYQDALGNEFPETYKLFLEKYGTLTFNGVSFYGISKRGLSAASIPDVKFATEQARTFGDINKEMIMIKNSGYGSIFSIDTSIIGSEGEPVIVETNLSFKDNTEKKVVANSFGEFLLEEIELSLTDLG”, the “soluble on expression in E. coli” value is given as “soluble”.
On to “GMASSGTEHDAMRARLVDVAQAIVEERGGAGLTLSELAARAGISQANLSRYFETREDLMEAIADYWFHPMVEIMEDVLASDLPPRRKMYEFFARRFVVMRRKWEADPVKLQTYIEVGNDYFEQVRSYIDLADHYLGEIIGEAMSDGAFSGLEVDETISLVNQMCAPYCALNTMTTFMERLSEDKLARIVDAVFDGLSAQDRGARSLTGLRAA”, for which the “soluble on expression in E. coli” value was “soluble”.
In the case of “GMAYEQFAYVYDELMQDVPYPEWVAWVLEQVEPGKRIADIGCGTGTATLLLADHYEVTGVDLSEEMLEIAQEKAMETNRHVDFWVQDMRELELPEPVDAITILCDSLNYLQTEADVKQTFDSAARLLTDGGKLLFDVHSPYKMETLFNGKTYATHAEQSSYIWFADPGEEPLSVVHELTFFIEGEDGRYDRVDETHHQRTYPPEQYITWLREAGFRVCAVTGDFKSDAPTETAERIFFVAEKI”, the “soluble on expression in E. coli” value is reported as “soluble”.
Take “GMDDLSEFVDQVPLLDHHCHFLIDGKVPNRDDRLAQVSTEADKDYPLADTKNRLAYHGFLALAKEFALDANNPLAAMNDPGYATYNHRIFGHFHFKELLIDTGFVPDDPILDLDQTAELVGIPVKAIYRLETHAEDFMLEHDNFAAWWQAFSNDVKQAKAHGFVGFKSIAAYRVGLHLEPVNVIEAAAGFDTWKHSGEKRLTSKPLIDYMLYHVAPFIIAQDMPLQFHVGYGDADTDMYLGNPLLMRDYLKAFTKKGLKVVLLHCYPYHREAGYLASVFPNLYFDISLLDNLGPSGASRVFNEAVELAPYTRILFASDASTYPEMYGLAARQFKQALVAHFNQLPFVDLAQKKAWINAICWQTSAKLYHQERELRV”: the “soluble on expression in E. coli” value was “soluble”.
Turning to “GMDEKPAITKIISGGQTGADRAALDFAIKHHIPYGGWVPKGRLAEGGRVPETYQLQEMPTSDYSKRTEKNVLDSDGTLIISHGILKGGSALTEFFAEQYKKPCLHIDLDRISIEDAATLINSWTVSHHIQVLNIAGPRAGKDPEIYQATMDLLEVFLA”, the “soluble on expression in E. coli” value is given as “soluble”.
Regarding “GMGIHQYFQSLSDLENIYRCPGKFKYQEHSVAEHSYKVTSIAQFFGAVEEDAGNEVNWRALYEKALNHDYSELFIGDIKTPVKYATTELREMLSEVEESMTKNFISREIPATFQPIYRHLLKEGKDSTLEGKILAISDKVDLLYESFGEIQKGNPENIFVEIYSEALATIYEYREMASVKYFLKEILPDMLAEKGIEKTELPQLTTEITTKALRDE”, the “soluble on expression in E. coli” value is recorded as “soluble”.
With “GMKKIRFAAIGLAHNHIYDMCQQLIDAGAELAGVFESDSDNRAKFTSLFPSVPFAASAEQLITDASIDLIACAVIPCDRAELALRTLDAGKDFFTAKPPLTTLEQLDAVQRRVAETGRKFAVYFNERINVDSALFAGELVQRGEIGRVIQTMGVGPHRERGARPDWFYQKRQYGGILCDIGIHQIEQFLYFTGNTNARVVTSQTANYHHPHHPEFEDFGDAMLLGDNGATGYFRCDWFTPDGLSVWGDGRLTILGTEGYIEIRKYVDLTRGESNVVYLVNGKGEQRFTPAGSVERAFFPDFLRDCRERTENAMSQSHIFKATELSILAQQAANKIA”, the “soluble on expression in E. coli” value is on record as “soluble”.
Regarding “GMKLYKLLILDIDGTLRDEVYGIPESAKHAIRLCQKNHCSVVICTGRSMGTIQDDVLSLGVDGYIAGGGNYIQYHGELLYNQSFNQRLIKEVVCLLKKREVAFSIESQEKVFMNQKAKEIFETMNQLKGTNSCINKQHIQEKITYENNIEEYKSQDIHKICLWSNEKVFDEVKDILQDKMELAQRDISSQYYEIIQKDFHKGKAIKRLQERLGVTQKETICFGDGQNDIVMFQASDVTIAMKNSHQQLKDIATSICEDIFDNGIYKELKRRNII”, the “soluble on expression in E. coli” value is recorded as “soluble”.
With “GMKQDSIITLHPDDRSEQTAEIMRRFNDVFQLHDPAALPELIAEECVIENTVPAPDGARHAGRQACVQLWSAIATQPGTRFDLEETFVAGDRATIRWRYWMADGNSVRGVNLMRVQDGRIVEAMGYVKG” the entry was “soluble”; with “GMKTIDLADIQAFLYRESRLLDDKAWDAWLDCYRADAVFWMPSWDDADALVTDPQREISLIYYPNRQGLEDRVFRIKTERSSATVPDTRTSHNIANVERESADGDVHTVRFNWHTLSYRYKTVSSYFGMSRYAIDFSGDAPKIVSKYVVLKNDYINQLIDIYHI”, “soluble”; with “GMMTHYSDNTLKVAHQGFEFFTQGLATGEWQKFLDMLTEDFTFWFPMGEFHGLNVGKERAKEFFTYVSESFHTGIQISSLDRVTSNETTVVFEFRDEGLFLGKPYKNRVAVSFDVRGDKICSYREYFGSDGKSN”, “soluble”.
